# Assay results reported in article PMC7881117 (Nature Communications, 2021).
# B1: MDM2 p53 binding domain (domain or fragment)
# chain: TLVRPKPLLLKLLKSVGAQKDTYTMKEVLFYLGQYIMTKRLYDEKQQHIVYCSNDLLGDLFGVPSFSVKEHRKIYTMIYRNLVV
# Target: T1, full-length p53 (UniProt P04637 1-393)
# T1 construct: A fluorescein-labelled form was used in the ubiquitination assay only
# Test: SPR; p53 binding domain of MDM2 immobilised on a CM5 chip by amine coupling; full-length p53 at 0.125 to 2 μM flowed over; BIAcore 3000
# Conditions: both partners purified
# T1 sequence (P04637 whole entry): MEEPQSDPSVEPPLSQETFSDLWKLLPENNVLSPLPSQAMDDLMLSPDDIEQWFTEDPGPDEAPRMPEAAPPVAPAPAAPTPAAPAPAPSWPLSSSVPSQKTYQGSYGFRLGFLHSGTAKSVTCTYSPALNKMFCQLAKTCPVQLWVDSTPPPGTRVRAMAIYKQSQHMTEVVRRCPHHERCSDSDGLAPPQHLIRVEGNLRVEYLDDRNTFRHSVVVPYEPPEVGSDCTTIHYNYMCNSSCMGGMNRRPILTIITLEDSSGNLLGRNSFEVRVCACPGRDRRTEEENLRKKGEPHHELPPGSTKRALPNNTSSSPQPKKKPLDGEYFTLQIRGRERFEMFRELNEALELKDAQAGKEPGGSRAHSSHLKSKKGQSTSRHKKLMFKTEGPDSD
binder,measurement,value
B1,Kd,600 ± 100 nM
